Assay results published in patent publication US20240209089A1 (SUZHOU SMARTNUCLIDE BIOPHARMACEUTICAL, published 2024).

B1: phage clone No. 55 (S7) (VHH)
VHH: QLQLVESGGGLVQPGGSLRLSCAASGSIFSINGMGWYRQAPGKQREAVAVITSGGKIDYLDSVKGRFTISRDSAKNTVALQMNSLKPEDTAVYYCNAYGDVRRGEVRWGQGTQVTVSS
B2: phage clone No. 71 (S23) (VHH)
VHH: QVQLVESGGGLVQPGGSLRLSCAASGSIFSINGMGWYRQAPGKQRELVAAITSGGKTDYLDSVKGRFTISRDSAKNTVALQMNSLKPEDTAVYYCNAYGDVQRGEVRWGQGTQVTVSS
B3: phage clone No. 70 (S22) (VHH)
VHH: QLQLVESGGGLVQPGGSLRLSCAASGSIFSINTMGWYRQAPGKQRELVATMHSTGSTNYADSVKGRFTISRDNAKKTVYLQMNSLKPDDTAVYYCHVDDMGWGTVDSWGQGTQVTVSS
B4: phage clone No. 27 (C27) (VHH)
VHH: QLQLVESGGGLVQPGGSLRLSCVVSGSIFAINTMGWYRQAPGKQRELVATMHSGGSTNYADSVKGRFTISRDAAPKTVYLQMNSLKPADTAVYYCHADDSGWGTVDSWGQGIQVTVSS
B5: phage clone No. 24 (C24) (VHH)
VHH: QVQLVESGGGLVQPGGSLRLSCAASGPIFSINTMGWYRQAPGKQRELVATMHSTGSTNYADSVKGRFTISRDNAKKTVYLQMNSLKPDDTAVYYCHVDDTGWGTVDSWGQGIQVTVSS
B6: phage clone No. 30 (C30) (VHH)
VHH: QVQLVESGGGLVQPGGSLRLSCVASGSIFAINTMGWYRQAPGKQRELVADMHSTGSTNYADSVKGRFTISRDNAKKKVYLQMNSLKPDDTAVYYCHVDDRGWGTVDSWGQGTQVTVSS
B7: phage clone No. 45 (C45) (VHH)
VHH: QVQLVESGGGLVQPGGSLRLSCAASGPIFSINTMGWYRQVPGKQRELVATMHSTGSTNYADSVKGRFTISRDNAKKTVYLQMNSLKPDDTAVYYCHVDDTGWGTVDSWGQGTQVTVSS
B8: phage clone No. 61 (S13) (VHH)
VHH: QLQLVESGGGLVQPGGSLRLSCVVSGSIFAINTMGWYRQAPGKQRELVATMHSYGSTNYADSVKGRFTISRDNAKKTVYLQMNSLKPADTAVYYCHADDTGWGTVDSWGQGTQVTVSS
B9: phage clone No. 66 (S18) (VHH)
VHH: QLQLVESGGGLVQPGGSLRLSCAASGSIFSINTMGWYRQAPGKQRELVATMTSHGSTNYADSVKGRFTISRDNSKNTVYLQMNSLKLQDTAVYYCNANDMGWGTVDAWGQGTLVTVSS
B10: phage clone No. 77 (S29) (VHH)
VHH: QLQLVESGGGLVQPGGSLRLSCTASGIIFSINTMGWYRQAPGKQRELVADISSFGSTNYADSVKGRFTISRDNAKNSVYLQMNSLKPEDTAVYYCNAHDKGWGTVDSWGQGTQVTVSS
B11: phage clone No. 42 (C42) (VHH)
VHH: QVQLVESGGGLVQAGGSLRLSCAASGLTFEDYAIGWFRQAPGKEREGISCIRIYDGNTYSAESVKGRFTISSDNAKNQVYLQINTLKPEDTAVYYCAAGSYYSCSVYPDYDMDYWGKGTLVTVSS
B12: phage clone No. 37 (C37) (VHH)
VHH: QLQLVESGGGLVQAGGSLRLSCAASGLTFEDYAIGWFRQAPGKEREGISCIRIYDGNTYSAESVKGRFTISSDNAKNQVYLQINTLKPEDTAVYYCAAGSYYSCSVYPDYDMDYWGKGTLVTVSS
B13: phage clone No. 2 (C2) (VHH)
VHH: QVQLVESGGGLVQPGGSLRLSCAASGFTLDYYAIGWFRQAPGKEREGISCIRIYDGNTYSAESVKGRFTISSDNAKNQVYLQINTLKPEDTAVYYCAAGSYYSCSVYPDYDMDYWGKGTLVTVSS
B14: phage clone No. 54 (S6) (VHH)
VHH: QVQLVESGGGLVQPGGSLRLSCAVSGTIFSINTMGWYRQVPGKQRELVATITSSGSTKYADSVKGRFTVSRDNAKRTVFLQMDSLKPEDTAVYYCHANDVGWGTVNAWGQGTLVTVSS
B15: phage clone No. 53 (S5) (VHH)
VHH: QVQLVESGGGLVQAGGSLRVSCAASGGTFSSTAMGWFRQAPGKEREFVAAISWSGGYTYYADSVRGRFTISRDNALNTVSLQMNSLKPEDTAVYYCAADISGLDTVAAGIFTEPNIDYWGKGTLVTVSS
B16: phage clone No. 29 (C29) (VHH)
VHH: QVQLVESGGGLVQAGGSLRLSCVASGFTSDDYVIGWFRQAPGKEREGVSCISSSDGTTNYADSVKGRFTISSDNAKNTVYLQMNSLKPEDTAVYYCAADPMRVCPYSGTYYGILGFGTSGQGTQVTVSS
B17: phage clone No. 46 (C46) (VHH)
VHH: QVQLVESGGGLVQAGGSLRLSCAASGVTFDDLAIGWFRQVPGKGREGVSTIGTSDGTAYYADSVKGRFTISSDNAKNTVYLQMNSLKPEDTAVYYCAVDLDYGLGSLLPMGYDYWGQGTQVTVSS
B18: phage clone No. 20 (C20) (VHH)
VHH: QVQLVESGGGLVQPGGSLRLSCAASGSIFSINTMGWYRQAPGKQRELVATMHSTGSTNYADSVKGRFTISRDNAKKTVYLQMNSLEPDDTAVYYCHVDDTGWGTVDSWGQGTQVTVS
B19: anti-CD8α single domain antibody S7 (VHH, not shown: small tags and cut ends)
VHH: QLQLVESGGGLVQPGGSLRLSCAASGSIFSINGMGWYRQAPGKQREAVAVITSGGKIDYLDSVKGRFTISRDSAKNTVALQMNSLKPEDTAVYYCNAYGDVRRGEVRWGQGTQVTVSS
notes: Only the E. coli expression is described for this antibody
B20: anti-CD8α single domain antibody S23 (VHH, not shown: small tags and cut ends)
VHH: QVQLVESGGGLVQPGGSLRLSCAASGSIFSINGMGWYRQAPGKQRELVAAITSGGKTDYLDSVKGRFTISRDSAKNTVALQMNSLKPEDTAVYYCNAYGDVQRGEVRWGQGTQVTVSS
notes: as for B19
B21: anti-CD8α single domain antibody S22 (VHH, not shown: small tags and cut ends)
VHH: QLQLVESGGGLVQPGGSLRLSCAASGSIFSINTMGWYRQAPGKQRELVATMHSTGSTNYADSVKGRFTISRDNAKKTVYLQMNSLKPDDTAVYYCHVDDMGWGTVDSWGQGTQVTVSS
notes: as for B19
B22: anti-CD8α single domain antibody S32 (VHH, not shown: small tags and cut ends)
VHH: QLQLVESGGGLVQPGGSLRLSCAASGSIFSINTMGWYRQAPGKQRELVATMHSTGSTNYADSVKGRFTISRDNAKKTVYLQMNSLKPDDTAVYYCHVDDMGWGTVDSWGQGTQVTVSS
notes: as for B19
B23: anti-CD8α single domain antibody S18 (VHH, not shown: small tags and cut ends)
VHH: QLQLVESGGGLVQPGGSLRLSCAASGSIFSINTMGWYRQAPGKQRELVATMTSHGSTNYADSVKGRFTISRDNSKNTVYLQMNSLKLQDTAVYYCNANDMGWGTVDAWGQGTLVTVSS
notes: as for B19
B24: anti-CD8α single domain antibody C45 (VHH, not shown: small tags and cut ends)
VHH: QVQLVESGGGLVQPGGSLRLSCAASGPIFSINTMGWYRQVPGKQRELVATMHSTGSTNYADSVKGRFTISRDNAKKTVYLQMNSLKPDDTAVYYCHVDDTGWGTVDSWGQGTQVTVSS
notes: as for B19
B25: anti-CD8α single domain antibody C30 (VHH, not shown: small tags and cut ends)
VHH: QVQLVESGGGLVQPGGSLRLSCVASGSIFAINTMGWYRQAPGKQRELVADMHSTGSTNYADSVKGRFTISRDNAKKKVYLQMNSLKPDDTAVYYCHVDDRGWGTVDSWGQGTQVTVSS
notes: as for B19
B26: anti-CD8α single domain antibody S6 (VHH, not shown: small tags and cut ends)
VHH: QVQLVESGGGLVQPGGSLRLSCAVSGTIFSINTMGWYRQVPGKQRELVATITSSGSTKYADSVKGRFTVSRDNAKRTVFLQMDSLKPEDTAVYYCHANDVGWGTVNAWGQGTLVTVSS
notes: as for B19
B27: anti-CD8α single domain antibody C20 (VHH, not shown: small tags and cut ends)
VHH: QVQLVESGGGLVQPGGSLRLSCAASGSIFSINTMGWYRQAPGKQRELVATMHSTGSTNYADSVKGRFTISRDNAKKTVYLQMNSLEPDDTAVYYCHVDDTGWGTVDSWGQGTQVTVS
notes: as for B19

target: T1, CD8α-Fc fusion protein (human); assay: phage ELISA on coated CD8α-Fc
T1 construct: also called CD8 α-Fc protein; CD8α-Fc tag antigen
Protocol: After 3-4 rounds of panning, 96 clones were randomly picked from the plate subjected to the last round of panning for identification. 96 single colonies were randomly picked and respectively cultured to produce and purify phages. The plate was coated with CD8α-Fc fusion protein at 4° C. overnight, then blocked with 3% BSA, and reacted for 1 hour at 37° C. Subsequently, the phage supernatant obtained after infection was added into each well (the control group was blank phage), and incubated for 1 hour at 37° C. After PBST washing, horseradish peroxidase labeled anti-M13 secondary antibody (purchased from Beijing Yiqiao Shenzhou Biotechnology Co., Ltd.) was added, and reacted for 1 hour at room temperature. After washing, a tetramethylbenzidine (TMB) chromogenic solution was added and an absorption value at 450 nm was read. Meanwhile, the plate was coated with an Fc protein at 4° C. overnight, blocked with 3% BSA, and reacted for 1 hour at 37° C. After washing, the phage supernatant obtained after infection (the control group was blank phage) was added to react for 1 hour at 37° C. After washing, the horseradish peroxide labeled anti-M13 secondary antibody (purchased from Beijing Yiqiao Shenzhou Biotechnology Co., Ltd.) was added to react for 1 hour at room temperature. After that, a TMB chromogenic solution was added and an absorption value at 450 nm was read. Where, when a ratio obtained by an OD value being divided by an OD value of blank control was >=4, it was judged that a candidate antibody could bind the CD8α-Fc protein; meanwhile, a ratio obtained by the CD8α-Fc binding OD value of the above antibody capable of binding the CD8 α-Fc antigen protein being divided by the Fc protein binding OD value was >=5, it was considered that the candidate antibody could specifically bind the CD8α part rather than the Fc part. […] The bacteria in candidate clone well were transferred to an LB liquid culture medium containing 100 μg/mL ampicillin so as to perform plasmid extraction and sequencing.

T1 sequence (chain, as listed by the source): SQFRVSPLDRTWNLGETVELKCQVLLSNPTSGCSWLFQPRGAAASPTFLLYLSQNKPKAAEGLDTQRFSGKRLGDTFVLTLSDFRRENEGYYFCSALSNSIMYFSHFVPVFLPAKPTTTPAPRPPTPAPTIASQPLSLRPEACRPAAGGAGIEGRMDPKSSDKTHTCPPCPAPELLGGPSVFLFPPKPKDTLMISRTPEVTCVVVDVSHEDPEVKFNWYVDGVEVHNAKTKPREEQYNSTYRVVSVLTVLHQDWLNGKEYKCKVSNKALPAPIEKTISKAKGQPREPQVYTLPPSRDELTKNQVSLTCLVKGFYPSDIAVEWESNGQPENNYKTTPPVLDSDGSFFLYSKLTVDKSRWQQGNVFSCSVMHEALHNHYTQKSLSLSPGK

Going from B1 to B2, the OD450 rises from 1.61 to 1.62.

First: B3
Second: B4
The OD450 of the first is lower: 1.73 for the first, 2.74 for the second.

First: B5
Second: B6
The OD450 of the first is higher: 2.35 for the first, 2.03 for the second.

Compared with B7, B8 is lower in OD450: 2.42 for the first, 1.71 for the second.

Going from B9 to B10, the OD450 falls from 1.72 to 1.63.

Going from B11 to B12, the OD450 rises from 3.18 to 3.2.

First: B13
Second: B14
The OD450 of the first is higher: 3.21 for the first, 1.3 for the second.

Going from B15 to B16, the OD450 rises from 1.2 to 1.75.

First: B17
Second: B18
The OD450 of the first is lower: 2.35 for the first, 3.19 for the second.

target: T2, human CD8α full-length protein (human, UniProt P01732 22-235); assay: flow cytometry on MC38-CD8α cells, secondary antibody-PE
T2 construct: whole, on cells; The same entry is used for MC38-CD8α transfectants and for human CD8+ T cells from peripheral blood; the assay field says which cells; also called cell surface CD8α; MC38-CD8α cells
Protocol: Mouse colon cancer MC38 cell lines stable transfected with human CD8α full-length protein gene were constructed to obtain MC38 cells (MC38-CD8α cells) stably expressing human CD8α proteins on the cell membrane. Prior to use, the cells were cultured to >90% convergence. The anti-CD8α single domain antibody was used to perform flow cytometry on these cells for quantitative analysis of indirect immunofluorescence staining so as to determine the quantity of receptors on surface of each cell.
The cells were collected and suspended to a concentration of 2.5×10⁶ cells/mL. 200 μL of cell aliquot samples were mixed with 20 μL of primary antibody, and the obtained mixture was incubated for 30 min on ice. The cells were centrifuged, washed and re-suspended, then 5 μL of secondary antibody-PE conjugate was added, and then the above mixture was incubated for 30 minutes on ice. The cells were washed twice, re-suspended and underwent flow cytometry on BD FACSCelesta™. For each tube, at least 5×10⁴ events were collected. All the analyses were single colors, and PE was detected in […].

T2 sequence (P01732 22-235): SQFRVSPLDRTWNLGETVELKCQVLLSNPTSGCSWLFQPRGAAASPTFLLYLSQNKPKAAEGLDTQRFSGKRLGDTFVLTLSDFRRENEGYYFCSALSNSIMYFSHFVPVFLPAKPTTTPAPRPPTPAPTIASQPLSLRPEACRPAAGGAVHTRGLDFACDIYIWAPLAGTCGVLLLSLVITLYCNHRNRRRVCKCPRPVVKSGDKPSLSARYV

B19 and B20 are the same in “Positive rate (%)” value: 99.3% for the first, 99.3% for the second.

First: B21
Second: B22
The “Positive rate (%)” value of the first is lower: 97% for the first, 99.1% for the second.

Going from B23 to B24, the “Positive rate (%)” value falls from 99.2% to 99.1%.

First: B25
Second: B26
The “Positive rate (%)” value of the first is higher: 98.8% for the first, 97.5% for the second.

B27 was tested, and the “Positive rate (%)” value was 98.9%.
